Measured values taken from US20200317768A1 (published 2020).
Changes are numbered by the printed parent chain. In names and notes the source's numbering stands.

B1: MS_M103205H707-SG1/M103202L802-SK1 (antibody, human IgG1, kappa, V domains shown)
VH: QVTLKESGPVLVKPTETLTLTCTVSGIDLSHYDISWVRQAPGKGLEWVGIISYAGSTYYASWAKGRLTISKDTSKNQVVLTMTNMDPVDTATYYCARGVPAYSHGGDLWGQGTLVTVSS
VL: DIVMTQSPATLSLSPGERATLSCTSSQSVYHDNWLSWFQQKPGQPPKLLIYWASTLAYGVPSRFSGSGSGTDFTLTISSLQPEDAATYYCAGGYGGGLYAFGQGTKVEIKR
notes: also called MS1032LO04-SG1; MSLO-04
B2: M103205H795-MY001/M103202L889-SK1 (antibody, human IgG1, kappa)
heavy: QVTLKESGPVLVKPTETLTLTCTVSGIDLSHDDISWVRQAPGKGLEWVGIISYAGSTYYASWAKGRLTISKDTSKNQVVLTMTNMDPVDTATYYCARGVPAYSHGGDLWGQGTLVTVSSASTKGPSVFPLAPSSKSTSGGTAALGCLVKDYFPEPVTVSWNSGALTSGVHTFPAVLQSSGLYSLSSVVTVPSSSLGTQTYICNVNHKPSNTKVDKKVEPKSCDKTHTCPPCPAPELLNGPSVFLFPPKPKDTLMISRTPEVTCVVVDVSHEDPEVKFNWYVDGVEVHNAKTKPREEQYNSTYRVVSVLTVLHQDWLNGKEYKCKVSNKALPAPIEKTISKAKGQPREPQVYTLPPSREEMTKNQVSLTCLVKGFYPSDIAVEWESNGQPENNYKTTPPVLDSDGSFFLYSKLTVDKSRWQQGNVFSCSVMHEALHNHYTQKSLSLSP
light: DIVMTQSPATLSLSPGERATLSCTSSQSVYHANWLSWFQQKPGQPPKLLIYWASTLAYGVPSRFSGSGSGTDFTLTISSLQPEDAATYYCAGGYGGGRYAFGQGTKVEIKRTVAAPSVFIFPPSDEQLKSGTASVVCLLNNFYPREAKVQWKVDNALQSGNSQESVTEQDSKDSTYSLSSTLTLSKADYEKHKVYACEVTHQGLSSPVTKSFNRGEC
notes: also called G236N
B3: M103205H795-SG176/M103202L889-SK1 (antibody, human IgG1, kappa)
heavy: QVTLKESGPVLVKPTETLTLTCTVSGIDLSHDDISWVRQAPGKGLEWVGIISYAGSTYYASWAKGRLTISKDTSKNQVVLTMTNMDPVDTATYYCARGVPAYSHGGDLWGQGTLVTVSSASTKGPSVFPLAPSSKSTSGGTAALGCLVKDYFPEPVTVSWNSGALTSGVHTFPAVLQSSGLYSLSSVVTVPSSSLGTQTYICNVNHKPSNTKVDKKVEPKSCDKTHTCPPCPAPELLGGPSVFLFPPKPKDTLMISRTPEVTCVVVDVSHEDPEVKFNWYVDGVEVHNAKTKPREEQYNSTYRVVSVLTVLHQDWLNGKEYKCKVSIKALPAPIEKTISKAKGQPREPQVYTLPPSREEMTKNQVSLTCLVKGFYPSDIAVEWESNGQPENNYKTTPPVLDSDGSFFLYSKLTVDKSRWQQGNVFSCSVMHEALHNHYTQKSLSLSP
light: B2 light
notes: also called N325I
B4: M103205H795-SG168/M103202L889-SK1 (antibody, human IgG1, kappa)
heavy: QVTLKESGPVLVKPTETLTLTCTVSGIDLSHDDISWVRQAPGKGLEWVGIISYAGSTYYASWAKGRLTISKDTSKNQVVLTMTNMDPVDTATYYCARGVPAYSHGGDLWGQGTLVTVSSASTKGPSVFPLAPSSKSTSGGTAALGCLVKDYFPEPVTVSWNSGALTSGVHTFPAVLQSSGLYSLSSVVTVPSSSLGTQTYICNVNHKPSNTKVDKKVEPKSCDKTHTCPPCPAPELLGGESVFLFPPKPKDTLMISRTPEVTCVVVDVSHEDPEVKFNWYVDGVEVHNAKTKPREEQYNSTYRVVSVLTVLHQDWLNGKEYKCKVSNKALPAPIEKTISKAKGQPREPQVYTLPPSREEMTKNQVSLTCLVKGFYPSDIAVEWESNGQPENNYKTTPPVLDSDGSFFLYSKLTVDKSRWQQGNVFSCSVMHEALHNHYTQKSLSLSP
light: B2 light
notes: also called P238E
B5: M103205H795-SG169/M103202L889-SK1 (antibody, human IgG1, kappa)
heavy: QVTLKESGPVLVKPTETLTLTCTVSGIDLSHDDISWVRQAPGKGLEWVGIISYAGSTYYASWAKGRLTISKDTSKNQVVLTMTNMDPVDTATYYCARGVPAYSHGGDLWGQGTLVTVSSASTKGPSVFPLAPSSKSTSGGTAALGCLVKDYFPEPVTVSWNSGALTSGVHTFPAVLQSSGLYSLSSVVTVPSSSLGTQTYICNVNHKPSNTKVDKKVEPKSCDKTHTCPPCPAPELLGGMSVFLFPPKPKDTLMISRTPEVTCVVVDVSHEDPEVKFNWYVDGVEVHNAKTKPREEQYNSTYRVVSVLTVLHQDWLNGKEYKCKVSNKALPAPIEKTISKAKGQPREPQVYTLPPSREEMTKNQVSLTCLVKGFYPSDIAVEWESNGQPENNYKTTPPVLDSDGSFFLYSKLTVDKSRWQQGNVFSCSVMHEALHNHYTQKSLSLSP
light: B2 light
notes: also called P238M
B6: M103205H795-SG172/M103202L889-SK1 (antibody, human IgG1, kappa)
heavy: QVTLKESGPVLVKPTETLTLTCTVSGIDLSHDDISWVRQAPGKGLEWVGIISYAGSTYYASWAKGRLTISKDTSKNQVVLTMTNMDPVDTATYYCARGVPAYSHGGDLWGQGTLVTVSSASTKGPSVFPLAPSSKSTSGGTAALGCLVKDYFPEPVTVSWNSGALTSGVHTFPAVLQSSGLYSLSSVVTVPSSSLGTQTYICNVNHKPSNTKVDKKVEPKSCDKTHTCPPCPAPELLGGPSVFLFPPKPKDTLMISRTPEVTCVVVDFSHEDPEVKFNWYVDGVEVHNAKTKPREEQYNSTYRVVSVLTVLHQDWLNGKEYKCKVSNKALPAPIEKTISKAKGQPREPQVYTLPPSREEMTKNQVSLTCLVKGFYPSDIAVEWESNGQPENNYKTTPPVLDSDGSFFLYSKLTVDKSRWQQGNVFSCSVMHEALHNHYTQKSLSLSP
light: B2 light
notes: also called V266F
B7: M103205H795-SG171/M103202L889-SK1 (antibody, human IgG1, kappa)
heavy: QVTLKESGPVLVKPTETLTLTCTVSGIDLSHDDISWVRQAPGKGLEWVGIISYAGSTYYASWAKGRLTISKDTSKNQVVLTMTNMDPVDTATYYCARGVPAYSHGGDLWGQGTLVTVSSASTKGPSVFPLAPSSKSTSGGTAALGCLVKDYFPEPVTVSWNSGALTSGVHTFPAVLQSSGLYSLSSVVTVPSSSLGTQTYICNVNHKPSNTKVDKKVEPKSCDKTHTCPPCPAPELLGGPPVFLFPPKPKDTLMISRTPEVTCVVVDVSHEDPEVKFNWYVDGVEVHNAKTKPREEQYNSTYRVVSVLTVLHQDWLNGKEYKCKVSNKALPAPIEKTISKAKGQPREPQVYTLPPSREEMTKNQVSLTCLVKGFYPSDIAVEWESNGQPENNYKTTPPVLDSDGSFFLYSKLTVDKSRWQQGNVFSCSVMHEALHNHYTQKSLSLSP
light: B2 light
notes: also called S239P
B8: M103205H795-SG170/M103202L889-SK1 (antibody, human IgG1, kappa)
heavy: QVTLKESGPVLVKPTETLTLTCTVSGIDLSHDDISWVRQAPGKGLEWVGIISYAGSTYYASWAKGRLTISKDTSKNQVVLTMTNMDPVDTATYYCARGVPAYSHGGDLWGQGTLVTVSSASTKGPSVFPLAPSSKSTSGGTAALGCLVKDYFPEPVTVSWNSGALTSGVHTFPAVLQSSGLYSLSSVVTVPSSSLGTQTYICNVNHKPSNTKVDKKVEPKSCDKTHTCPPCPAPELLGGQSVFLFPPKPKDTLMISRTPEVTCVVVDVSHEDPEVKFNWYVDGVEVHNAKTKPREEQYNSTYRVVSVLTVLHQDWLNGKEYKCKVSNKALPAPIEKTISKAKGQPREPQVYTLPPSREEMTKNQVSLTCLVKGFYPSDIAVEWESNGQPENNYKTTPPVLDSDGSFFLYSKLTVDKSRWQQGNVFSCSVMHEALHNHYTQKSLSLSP
light: B2 light
notes: also called P238Q
B9: M103205H795-SG165/M103202L889-SK1 (antibody, human IgG1, kappa)
heavy: not shown
light: B2 light
notes: also called G237Y
B10: M103205H795-SG175/M103202L889-SK1 (antibody, human IgG1, kappa)
heavy: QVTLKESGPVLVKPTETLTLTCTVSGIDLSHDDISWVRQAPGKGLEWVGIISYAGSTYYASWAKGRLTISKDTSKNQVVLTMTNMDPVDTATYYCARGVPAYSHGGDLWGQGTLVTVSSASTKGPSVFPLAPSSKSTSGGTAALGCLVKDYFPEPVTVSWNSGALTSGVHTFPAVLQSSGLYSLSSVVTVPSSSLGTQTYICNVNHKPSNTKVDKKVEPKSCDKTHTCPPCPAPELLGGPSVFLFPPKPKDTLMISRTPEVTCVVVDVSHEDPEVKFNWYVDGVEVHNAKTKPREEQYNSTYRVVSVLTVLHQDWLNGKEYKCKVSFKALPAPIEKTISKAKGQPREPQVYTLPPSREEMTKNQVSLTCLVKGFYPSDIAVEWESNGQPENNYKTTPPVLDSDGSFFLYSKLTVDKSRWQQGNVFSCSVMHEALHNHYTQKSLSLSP
light: B2 light
notes: also called N325F
B11: M103205H795-SG174/M103202L889-SK1 (antibody, human IgG1, kappa)
heavy: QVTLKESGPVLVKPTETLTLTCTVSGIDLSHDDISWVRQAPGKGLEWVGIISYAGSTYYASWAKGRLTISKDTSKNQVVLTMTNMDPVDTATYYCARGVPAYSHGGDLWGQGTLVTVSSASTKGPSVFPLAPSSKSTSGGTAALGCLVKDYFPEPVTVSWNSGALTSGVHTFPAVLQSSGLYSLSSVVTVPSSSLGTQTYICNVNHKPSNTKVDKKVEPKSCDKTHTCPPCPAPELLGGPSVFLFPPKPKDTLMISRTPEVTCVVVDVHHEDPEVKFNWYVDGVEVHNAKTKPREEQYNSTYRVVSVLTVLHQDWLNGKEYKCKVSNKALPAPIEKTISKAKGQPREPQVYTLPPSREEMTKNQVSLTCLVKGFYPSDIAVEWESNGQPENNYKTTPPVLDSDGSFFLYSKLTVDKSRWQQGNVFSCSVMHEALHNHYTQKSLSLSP
light: B2 light
notes: also called S267H
B12: M103205H795-SG167/M103202L889-SK1 (antibody, human IgG1, kappa)
heavy: not shown
light: B2 light
notes: also called P238Y
B13: M103205H795-SG173/M103202L889-SK1 (antibody, human IgG1, kappa)
heavy: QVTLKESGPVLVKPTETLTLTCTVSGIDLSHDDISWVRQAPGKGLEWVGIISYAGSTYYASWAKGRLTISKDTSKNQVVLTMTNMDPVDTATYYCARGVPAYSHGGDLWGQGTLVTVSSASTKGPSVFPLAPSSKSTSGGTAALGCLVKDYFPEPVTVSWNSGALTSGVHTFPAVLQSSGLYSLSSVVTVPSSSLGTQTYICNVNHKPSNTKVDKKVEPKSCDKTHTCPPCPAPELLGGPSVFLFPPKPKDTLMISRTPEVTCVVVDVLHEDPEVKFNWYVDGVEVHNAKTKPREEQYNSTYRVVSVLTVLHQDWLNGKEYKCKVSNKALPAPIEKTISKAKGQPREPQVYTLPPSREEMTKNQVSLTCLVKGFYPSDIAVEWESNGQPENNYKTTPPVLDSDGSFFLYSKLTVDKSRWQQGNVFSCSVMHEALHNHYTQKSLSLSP
light: B2 light
notes: also called S267L
B14: M103205H795-SG177/M103202L889-SK1 (antibody, human IgG1, kappa)
heavy: not shown
light: B2 light
notes: also called N325L
B15: M103205H795-SG166/M103202L889-SK1 (antibody, human IgG1, kappa)
heavy: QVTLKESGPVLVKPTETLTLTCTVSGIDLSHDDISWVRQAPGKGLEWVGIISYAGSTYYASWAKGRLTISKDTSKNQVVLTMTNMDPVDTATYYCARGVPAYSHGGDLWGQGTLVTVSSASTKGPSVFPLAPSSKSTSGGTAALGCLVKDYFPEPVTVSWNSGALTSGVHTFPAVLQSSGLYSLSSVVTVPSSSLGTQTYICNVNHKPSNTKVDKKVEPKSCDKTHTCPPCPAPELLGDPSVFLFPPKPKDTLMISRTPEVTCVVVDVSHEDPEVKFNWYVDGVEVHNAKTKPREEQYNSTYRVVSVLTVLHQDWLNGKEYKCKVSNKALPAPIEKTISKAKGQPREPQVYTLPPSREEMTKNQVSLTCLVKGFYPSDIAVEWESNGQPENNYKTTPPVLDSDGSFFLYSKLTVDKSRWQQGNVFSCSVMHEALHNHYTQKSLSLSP
light: B2 light
notes: also called G237D

Legend:
Human latent myostatin = target: T1, Human latent myostatin (human, UniProt O14793 25-266; O14793 267-375); experiment: SPR (BIACORE T200), 37 C, pH7.4, avidity condition (capture 185 RU), 1:1 fit; pH 7.4
T1 construct: Biotinylated in the ELISAs; also called human myostatin latent form
T1 sequence 1: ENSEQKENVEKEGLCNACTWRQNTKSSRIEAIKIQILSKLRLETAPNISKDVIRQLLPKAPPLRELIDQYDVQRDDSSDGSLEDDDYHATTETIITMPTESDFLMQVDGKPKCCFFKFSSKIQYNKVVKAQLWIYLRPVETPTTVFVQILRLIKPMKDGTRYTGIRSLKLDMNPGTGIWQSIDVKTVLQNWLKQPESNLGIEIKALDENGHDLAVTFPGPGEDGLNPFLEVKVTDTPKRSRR
T1 sequence 2: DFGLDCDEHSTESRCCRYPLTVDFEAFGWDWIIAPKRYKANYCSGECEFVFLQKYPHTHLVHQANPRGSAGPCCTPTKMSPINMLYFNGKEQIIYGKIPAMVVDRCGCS
Experimental: The kinetic parameters of anti-latent myostatin antibodies against human, cynomolgus monkey (cyno), and mouse latent myostatin were assessed at 37° C. at pH7.4 using a BIACORE® T200 instrument (GE Healthcare). ProA/G (Pierce) was immobilized onto all flow cells of a CM4 chip using amine coupling kit (GE Healthcare). Anti-latent myostatin antibody and analytes were prepared in ACES pH7.4 (20 mM ACES, 150 mM NaCl, 1.2 mM CaCl₂), 0.05% TWEEN® 20, 0.005% NaN₃). […] Then human, cyno, or mouse latent myostatin was injected at 3.125 to 50 nM prepared by two-fold serial dilution, followed by dissociation. The sensor surface was regenerated with 25 mM NaOH. Kinetic parameters were determined by processing and fitting the data to a 1:1 binding model using BIACORE® T200 Evaluation software, version 2.0 (GE Healthcare).
All experimental settings were the same as in Example 7, except that measurements were also performed in ACES pH5.8 buffer in addition to ACES pH7.4 condition. Some antibodies were only measured against human latent myostatin. Antibody capture level was aimed at 185 RU and 18.5 RU, for avidity and affinity assay, respectively. Kinetic parameters were determined using 1:1 Binding fitting using BIACORE® T200 Evaluation software, version 2.0 (GE Healthcare).

[1] = target: T2, cynomolgus monkey FcγRIIIaS extracellular domain, C-terminal His-tag (cynomolgus monkey, UniProt Q8SPW2 21-206 at identity 1.00)); experiment: SPR; FcgR bound per captured antibody, normalized to SG1
T2 construct: also called cyno FcγRIIIaS; FcgRIIIaS
T2 chain: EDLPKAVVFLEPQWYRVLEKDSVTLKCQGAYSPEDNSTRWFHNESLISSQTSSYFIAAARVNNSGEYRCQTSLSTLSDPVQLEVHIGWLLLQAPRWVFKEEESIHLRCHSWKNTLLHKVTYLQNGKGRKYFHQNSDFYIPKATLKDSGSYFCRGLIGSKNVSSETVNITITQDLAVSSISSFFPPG
Experimental: (§1) The kinetic analysis of interactions between these antibodies and FcγR was carried out using BIACORE® T200 or BIACORE® 4000 (GE Healthcare). HBS-EP+ (GE Healthcare) was used as the running buffer, and the measurement temperature was set to 25° C. A chip produced by immobilizing Protein A. Protein A/G or mouse anti-human IgG kappa light chain (BD Biosciences) onto a Series S Sensor Chip CM4 or CM5 (GE Healthcare) by the amine-coupling method was used. […] After the measurement, the antibody captured on the chip was washed off by allowing reaction with 10 mM glycine-HCl, pH1.5 and 25 mM NaOH so that the chip was regenerated and used repeatedly. The sensorgrams obtained as measurement results were analyzed by the 1:1 Langmuir binding model using the BIACORE® Evaluation Software to calculate the binding rate constant ka (L/mol/s) and dissociation rate constant kd (l/s), and the dissociation constant KD (mol/L) was calculated from these values. […] Regarding such interactions, KD values were calculated using the following 1:1 binding model described in BIACORE® T100 Software Handbook BR1006-48 Edition AE.
(§2) The value of the amount of FcγR binding was obtained by dividing the amount of FcγR bound by the amount of each antibody captured.

[2] = target: T3, cynomolgus monkey FcγRIIa1 extracellular domain, C-terminal His-tag (cynomolgus monkey); experiment: as above
T3 construct: also called cyno FcγRIIa1; FcgRIIa1
T3 chain: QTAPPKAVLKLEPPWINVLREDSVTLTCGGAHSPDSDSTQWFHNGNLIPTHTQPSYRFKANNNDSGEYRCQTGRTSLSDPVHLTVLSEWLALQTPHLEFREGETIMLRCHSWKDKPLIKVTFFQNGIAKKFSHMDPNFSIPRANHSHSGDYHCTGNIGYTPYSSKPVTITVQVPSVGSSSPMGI
Experimental: as §1, §2

[3] = target: T4, cynomolgus monkey FcγRIIa2 extracellular domain, C-terminal His-tag (cynomolgus monkey); experiment: as above
T4 construct: also called cyno FcγRIIa2; FcgRIIa2
T4 chain: T3 chain with P95T, T121A, I127K, A128S, K130N, D135N, R142Q
Experimental: as §1, §2

[4] = target: T5, cynomolgus monkey FcγRIIb extracellular domain, C-terminal His-tag (cynomolgus monkey); experiment: as above
T5 construct: also called cyno FcγRIIb; cynoFcγRIIb
T5 chain: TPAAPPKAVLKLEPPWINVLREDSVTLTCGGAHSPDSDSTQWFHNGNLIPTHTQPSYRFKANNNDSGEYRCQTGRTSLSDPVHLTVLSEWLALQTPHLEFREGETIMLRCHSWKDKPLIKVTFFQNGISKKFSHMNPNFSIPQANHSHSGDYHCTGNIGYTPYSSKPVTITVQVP
Experimental: as §1, §2

[5] = target: T6, cynomolgus monkey FcγRIIa3 extracellular domain, C-terminal His-tag (cynomolgus monkey); experiment: as above
T6 construct: also called cyno FcγRIIa3; FcgRIIa3
T6 chain: T3 chain with P95T, T121A, A128S, H133P, D135N
Experimental: as §1, §2

Kd (Human latent myostatin) | koff (Human latent myostatin) | kon (Human latent myostatin) | amount of FcgR binding (SG1 = 100) [1] | amount of FcgR binding (SG1 = 100) [2] | amount of FcgR binding (SG1 = 100) [3] | amount of FcgR binding (SG1 = 100) [4] | amount of FcgR binding (SG1 = 100) [5] | Binder
0.163 nM | 0.000217 s⁻¹ | 1.33e+06 M⁻¹ s⁻¹ |  |  |  |  |  | B1
 |  |  | 15 SG1 = 100 | 83 SG1 = 100 | 86 SG1 = 100 | 85 SG1 = 100 | 62 SG1 = 100 | B2
 |  |  | 20 SG1 = 100 | 14 SG1 = 100 | 15 SG1 = 100 | 16 SG1 = 100 | 19 SG1 = 100 | B3
 |  |  | 13 SG1 = 100 | 21 SG1 = 100 | 16 SG1 = 100 | 28 SG1 = 100 | 30 SG1 = 100 | B4
 |  |  | 22 SG1 = 100 | 17 SG1 = 100 | 16 SG1 = 100 | 22 SG1 = 100 | 32 SG1 = 100 | B5
 |  |  | 31 SG1 = 100 | 14 SG1 = 100 | 17 SG1 = 100 | 16 SG1 = 100 | 27 SG1 = 100 | B6
 |  |  |  | 17 SG1 = 100 | 20 SG1 = 100 | 20 SG1 = 100 | 18 SG1 = 100 | B7
 |  |  | 12 SG1 = 100 | 16 SG1 = 100 | 15 SG1 = 100 | 18 SG1 = 100 | 21 SG1 = 100 | B8
 |  |  |  | 18 SG1 = 100 | 17 SG1 = 100 | 30 SG1 = 100 | 30 SG1 = 100 | B9
 |  |  |  | 13 SG1 = 100 | 13 SG1 = 100 | 14 SG1 = 100 | 17 SG1 = 100 | B10
 |  |  | 15 SG1 = 100 | 13 SG1 = 100 | 16 SG1 = 100 | 11 SG1 = 100 | 20 SG1 = 100 | B11
 |  |  | 14 SG1 = 100 | 18 SG1 = 100 | 14 SG1 = 100 | 22 SG1 = 100 | 38 SG1 = 100 | B12
 |  |  | 24 SG1 = 100 | 13 SG1 = 100 | 14 SG1 = 100 | 12 SG1 = 100 | 21 SG1 = 100 | B13
 |  |  | 21 SG1 = 100 | 15 SG1 = 100 | 15 SG1 = 100 | 18 SG1 = 100 | 25 SG1 = 100 | B14
 |  |  | 5 SG1 = 100 | 10 SG1 = 100 | 10 SG1 = 100 |  | 17 SG1 = 100 | B15
